# According to paper PMC8699594, “Improving the Substrate Affinity and Catalytic Efficiency of β-Glucosidase Bgl3A from Talaromyces leycettanus JCM12802 by Rational Design” (Biomolecules, 2021):
# What was measured:
# [1] = biological target: T1, Bgl3A (Evansstolkia leycettana, UniProt A0A1B0VFN7); test: glucose release (GOD-POD), Michaelis-Menten fit; assay type: biochemical; conditions: read-out: Cellobiose / Km; 75 °C, pH 4.5, Na2HPO4-citric acid buffer
# T1 construct: no tag mentioned
# [2] = biological target: T1, Bgl3A; test: p-nitrophenol release at […] nm, Michaelis-Menten fit; assay type: biochemical; conditions: read-out: pNPG / Km; 75 °C, pH 4.5, Na2HPO4-citric acid buffer
# [3] = substrate: O=[N+]([O-])c1ccc(O[C@@H]2O[C@H](CO)[C@@H](O)[C@H](O)[C@H]2O)cc1; test: purified protein; conditions: 75 °C, pH 4.5, Na2HPO4-citric acid buffer
# T1 sequence (A0A1B0VFN7 entry or part of it): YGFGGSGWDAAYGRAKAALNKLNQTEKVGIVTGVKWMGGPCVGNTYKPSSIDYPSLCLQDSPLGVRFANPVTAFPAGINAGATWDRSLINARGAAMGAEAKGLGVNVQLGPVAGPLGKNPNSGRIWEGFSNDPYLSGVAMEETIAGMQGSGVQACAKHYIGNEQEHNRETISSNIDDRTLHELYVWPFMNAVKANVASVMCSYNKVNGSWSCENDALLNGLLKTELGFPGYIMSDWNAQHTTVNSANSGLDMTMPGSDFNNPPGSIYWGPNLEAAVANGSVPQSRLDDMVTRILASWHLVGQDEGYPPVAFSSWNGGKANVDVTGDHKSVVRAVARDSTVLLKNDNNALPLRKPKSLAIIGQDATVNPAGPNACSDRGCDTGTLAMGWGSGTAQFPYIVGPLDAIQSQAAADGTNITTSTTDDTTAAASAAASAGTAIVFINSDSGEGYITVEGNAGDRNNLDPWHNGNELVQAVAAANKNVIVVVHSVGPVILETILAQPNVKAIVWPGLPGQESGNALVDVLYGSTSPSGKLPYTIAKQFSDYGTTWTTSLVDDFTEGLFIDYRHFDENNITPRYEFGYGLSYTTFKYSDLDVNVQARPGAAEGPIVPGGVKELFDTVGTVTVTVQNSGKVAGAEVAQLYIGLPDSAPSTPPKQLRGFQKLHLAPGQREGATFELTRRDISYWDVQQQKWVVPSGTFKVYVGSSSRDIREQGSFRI
Km [1],Km [2],Molecule,Km [3],kcat [3],kcat/Km [3]
10400 ± 400 µM,,OC[C@H]1O[C@@H](O[C@H]2[C@H](O)[C@@H](O)C(O)O[C@@H]2CO)[C@H](O)[C@@H](O)[C@@H]1O (some centres unmarked) [cellobiose],,,
,180 ± 30 µM,O=[N+]([O-])c1ccc(O[C@@H]2O[C@H](CO)[C@@H](O)[C@H](O)[C@H]2O)cc1 [4-nitrophenyl β-D-glucopyranoside],,,
,,Bgl3A (Evansstolkia leycettana; F86Y) (protein) YGFGGSGWDAAYGRAKAALNKLNQTEKVGIVTGVKWMGGPCVGNTYKPSSIDYPSLCLQDSPLGVRYANPVTAFPAGINAGATWDRSLINARGAAMGAEAKGLGVNVQLGPVAGPLGKNPNSGRIWEGFSNDPYLSGVAMEETIAGMQGSGVQACAKHYIGNEQEHNRETISSNIDDRTLHELYVWPFMNAVKANVASVMCSYNKVNGSWSCENDALLNGLLKTELGFPGYIMSDWNAQHTTVNSANSGLDMTMPGSDFNNPPGSIYWGPNLEAAVANGSVPQSRLDDMVTRILASWHLVGQDEGYPPVAFSSWNGGKANVDVTGDHKSVVRAVARDSTVLLKNDNNALPLRKPKSLAIIGQDATVNPAGPNACSDRGCDTGTLAMGWGSGTAQFPYIVGPLDAIQSQAAADGTNITTSTTDDTTAAASAAASAGTAIVFINSDSGEGYITVEGNAGDRNNLDPWHNGNELVQAVAAANKNVIVVVHSVGPVILETILAQPNVKAIVWPGLPGQESGNALVDVLYGSTSPSGKLPYTIAKQFSDYGTTWTTSLVDDFTEGLFIDYRHFDENNITPRYEFGYGLSYTTFKYSDLDVNVQARPGAAEGPIVPGGVKELFDTVGTVTVTVQNSGKVAGAEVAQLYIGLPDSAPSTPPKQLRGFQKLHLAPGQREGATFELTRRDISYWDVQQQKWVVPSGTFKVYVGSSSRDIREQGSFRI,240 ± 20 µM,1770 s⁻¹,7.45e+06 M⁻¹ s⁻¹
,,Bgl3A (Evansstolkia leycettana; M56N) (protein) YGFGGSGWDAAYGRAKAALNKLNQTEKVGIVTGVKWNGGPCVGNTYKPSSIDYPSLCLQDSPLGVRFANPVTAFPAGINAGATWDRSLINARGAAMGAEAKGLGVNVQLGPVAGPLGKNPNSGRIWEGFSNDPYLSGVAMEETIAGMQGSGVQACAKHYIGNEQEHNRETISSNIDDRTLHELYVWPFMNAVKANVASVMCSYNKVNGSWSCENDALLNGLLKTELGFPGYIMSDWNAQHTTVNSANSGLDMTMPGSDFNNPPGSIYWGPNLEAAVANGSVPQSRLDDMVTRILASWHLVGQDEGYPPVAFSSWNGGKANVDVTGDHKSVVRAVARDSTVLLKNDNNALPLRKPKSLAIIGQDATVNPAGPNACSDRGCDTGTLAMGWGSGTAQFPYIVGPLDAIQSQAAADGTNITTSTTDDTTAAASAAASAGTAIVFINSDSGEGYITVEGNAGDRNNLDPWHNGNELVQAVAAANKNVIVVVHSVGPVILETILAQPNVKAIVWPGLPGQESGNALVDVLYGSTSPSGKLPYTIAKQFSDYGTTWTTSLVDDFTEGLFIDYRHFDENNITPRYEFGYGLSYTTFKYSDLDVNVQARPGAAEGPIVPGGVKELFDTVGTVTVTVQNSGKVAGAEVAQLYIGLPDSAPSTPPKQLRGFQKLHLAPGQREGATFELTRRDISYWDVQQQKWVVPSGTFKVYVGSSSRDIREQGSFRI,590 ± 70 µM,1070 s⁻¹,1.79e+06 M⁻¹ s⁻¹
,,Bgl3A (Evansstolkia leycettana; M56E) (protein) YGFGGSGWDAAYGRAKAALNKLNQTEKVGIVTGVKWEGGPCVGNTYKPSSIDYPSLCLQDSPLGVRFANPVTAFPAGINAGATWDRSLINARGAAMGAEAKGLGVNVQLGPVAGPLGKNPNSGRIWEGFSNDPYLSGVAMEETIAGMQGSGVQACAKHYIGNEQEHNRETISSNIDDRTLHELYVWPFMNAVKANVASVMCSYNKVNGSWSCENDALLNGLLKTELGFPGYIMSDWNAQHTTVNSANSGLDMTMPGSDFNNPPGSIYWGPNLEAAVANGSVPQSRLDDMVTRILASWHLVGQDEGYPPVAFSSWNGGKANVDVTGDHKSVVRAVARDSTVLLKNDNNALPLRKPKSLAIIGQDATVNPAGPNACSDRGCDTGTLAMGWGSGTAQFPYIVGPLDAIQSQAAADGTNITTSTTDDTTAAASAAASAGTAIVFINSDSGEGYITVEGNAGDRNNLDPWHNGNELVQAVAAANKNVIVVVHSVGPVILETILAQPNVKAIVWPGLPGQESGNALVDVLYGSTSPSGKLPYTIAKQFSDYGTTWTTSLVDDFTEGLFIDYRHFDENNITPRYEFGYGLSYTTFKYSDLDVNVQARPGAAEGPIVPGGVKELFDTVGTVTVTVQNSGKVAGAEVAQLYIGLPDSAPSTPPKQLRGFQKLHLAPGQREGATFELTRRDISYWDVQQQKWVVPSGTFKVYVGSSSRDIREQGSFRI,250 ± 30 µM,1800 s⁻¹,7.09e+06 M⁻¹ s⁻¹
,,Bgl3A (Evansstolkia leycettana; E188Q) (protein) YGFGGSGWDAAYGRAKAALNKLNQTEKVGIVTGVKWMGGPCVGNTYKPSSIDYPSLCLQDSPLGVRFANPVTAFPAGINAGATWDRSLINARGAAMGAEAKGLGVNVQLGPVAGPLGKNPNSGRIWEGFSNDPYLSGVAMEETIAGMQGSGVQACAKHYIGNEQEHNRQTISSNIDDRTLHELYVWPFMNAVKANVASVMCSYNKVNGSWSCENDALLNGLLKTELGFPGYIMSDWNAQHTTVNSANSGLDMTMPGSDFNNPPGSIYWGPNLEAAVANGSVPQSRLDDMVTRILASWHLVGQDEGYPPVAFSSWNGGKANVDVTGDHKSVVRAVARDSTVLLKNDNNALPLRKPKSLAIIGQDATVNPAGPNACSDRGCDTGTLAMGWGSGTAQFPYIVGPLDAIQSQAAADGTNITTSTTDDTTAAASAAASAGTAIVFINSDSGEGYITVEGNAGDRNNLDPWHNGNELVQAVAAANKNVIVVVHSVGPVILETILAQPNVKAIVWPGLPGQESGNALVDVLYGSTSPSGKLPYTIAKQFSDYGTTWTTSLVDDFTEGLFIDYRHFDENNITPRYEFGYGLSYTTFKYSDLDVNVQARPGAAEGPIVPGGVKELFDTVGTVTVTVQNSGKVAGAEVAQLYIGLPDSAPSTPPKQLRGFQKLHLAPGQREGATFELTRRDISYWDVQQQKWVVPSGTFKVYVGSSSRDIREQGSFRI,210 ± 30 µM,1740 s⁻¹,8.39e+06 M⁻¹ s⁻¹
